Data reported in patent US20120328616A1 (Amgen, published 2012).
Positions count from the first letter of the chain named. One block for each binder: values may come before it.

How the values were obtained:
[1] = molecular target: T1, huBeta_Klotho (1-81, 303-1044) (muBetaKLOTHO 82P-302S) (human; murine, UniProt Q86Z14 1-1044); experiment: flow cytometry, transfected HEK-293T
T1 construct: also called Chimera 4; Construct 4

[2] = molecular target: T2, huBeta_Klotho (1-521, 738-1044) (muBeta KLOTHO 520P-735A) (human; murine, UniProt Q86Z14 1-1044); experiment: flow cytometry, transfected HEK-293T
T2 construct: also called Chimera 9; Construct 9

[3] = molecular target: T3, huBeta_Klotho (1-81, 523-1044) (muBetaKLOTHO 82-520) (human; murine, UniProt Q86Z14 1-1044); experiment: flow cytometry, transfected HEK-293T
T3 construct: Expressed on HEK-293T cells; also called Chimera 1; Construct 1
T3 chain: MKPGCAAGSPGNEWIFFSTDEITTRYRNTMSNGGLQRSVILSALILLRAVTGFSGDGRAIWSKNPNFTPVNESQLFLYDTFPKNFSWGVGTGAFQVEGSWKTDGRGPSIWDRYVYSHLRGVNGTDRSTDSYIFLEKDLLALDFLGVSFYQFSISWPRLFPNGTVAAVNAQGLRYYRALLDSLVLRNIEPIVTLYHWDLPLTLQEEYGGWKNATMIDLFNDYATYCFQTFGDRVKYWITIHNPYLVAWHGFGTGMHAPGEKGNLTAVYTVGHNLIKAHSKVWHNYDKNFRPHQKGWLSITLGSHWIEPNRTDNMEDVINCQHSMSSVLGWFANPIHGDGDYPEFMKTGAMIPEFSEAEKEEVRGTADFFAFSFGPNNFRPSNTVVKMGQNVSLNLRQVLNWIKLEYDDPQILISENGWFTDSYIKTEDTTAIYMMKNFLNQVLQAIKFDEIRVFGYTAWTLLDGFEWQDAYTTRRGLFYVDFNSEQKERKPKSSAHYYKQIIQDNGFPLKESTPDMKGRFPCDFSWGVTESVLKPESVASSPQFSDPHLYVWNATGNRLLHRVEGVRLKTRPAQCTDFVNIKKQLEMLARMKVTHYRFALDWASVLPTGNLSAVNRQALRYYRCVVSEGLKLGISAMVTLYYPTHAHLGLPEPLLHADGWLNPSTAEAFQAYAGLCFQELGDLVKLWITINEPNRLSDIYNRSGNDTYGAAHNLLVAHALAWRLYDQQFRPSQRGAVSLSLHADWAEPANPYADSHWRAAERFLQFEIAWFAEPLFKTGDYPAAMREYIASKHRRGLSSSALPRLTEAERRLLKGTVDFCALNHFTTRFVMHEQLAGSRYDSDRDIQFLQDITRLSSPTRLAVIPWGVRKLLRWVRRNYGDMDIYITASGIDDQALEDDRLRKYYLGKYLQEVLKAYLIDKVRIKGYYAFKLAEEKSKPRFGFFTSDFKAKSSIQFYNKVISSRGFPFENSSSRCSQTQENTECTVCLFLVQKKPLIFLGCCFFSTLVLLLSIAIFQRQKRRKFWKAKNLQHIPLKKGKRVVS

[4] = molecular target: T4, huBeta_Klotho (1-81, 194-1044) (muBeta KLOTHO 82P-193L) (human; murine, UniProt Q86Z14 1-1044); experiment: flow cytometry, transfected HEK-293T
T4 construct: also called Chimera 13; Construct 13

[5] = molecular target: T5, human FGFR1c (human, UniProt P11362 22-822); experiment: flow cytometry, transfected HEK293T
T5 construct: Full length (GenBank NP-075598), expressed on transfected 293T cells; also called huFGFR1c; FGFR1c alone

[6] = molecular target: T6, human FGFR1c/human β-Klotho complex (FGF21 receptor) (human, UniProt P11362 22-822); experiment: flow cytometry, transfected HEK293T; mock-transfected cells 723
T6 construct: Both full-length proteins co-expressed on cells (HEK293T, CHO, L6); also called HuFGFR1c/Hu β-Klotho; huFGF21R

[7] = molecular target: T5, human FGFR1c; experiment: as above
[8] = molecular target: T7, cynomologous monkey FGFR1c/cynomologous monkey β-Klotho (co-transfected) (cynomologous monkey); experiment: flow cytometry, transfected HEK293T; mock-transfected cells 695
T7 construct: whole, on cells; also called Cyno FGFR1c/Cyno β-Klotho

[9] = molecular target: T6, human FGFR1c/human β-Klotho complex …; experiment: as above
[10] = molecular target: T5, human FGFR1c; experiment: as above
[11] = molecular target: T7, cynomologous monkey FGFR1c/cynomologous …; experiment: flow cytometry, transfected HEK293T; mock-transfected cells 688
[12] = molecular target: T6, human FGFR1c/human β-Klotho complex …; experiment: as above
[13] = molecular target: T5, human FGFR1c; experiment: as above
[14] = molecular target: T7, cynomologous monkey FGFR1c/cynomologous …; experiment: flow cytometry, transfected HEK293T; mock-transfected cells 705
[15] = molecular target: T6, human FGFR1c/human β-Klotho complex …; experiment: as above
[16] = molecular target: T5, human FGFR1c; experiment: as above
[17] = molecular target: T7, cynomologous monkey FGFR1c/cynomologous …; experiment: flow cytometry, transfected HEK293T; mock-transfected cells 632
[18] = molecular target: T6, human FGFR1c/human β-Klotho complex …; experiment: as above
[19] = molecular target: T5, human FGFR1c; experiment: as above

B1: 49G3.3 (antibody, V domains shown)
VH: QVTLKESGPVLVKPTETLTLTCTVSGFSLSNPRMGVSWIRQPPGKALEWLTHIFSNDEKSYSTSLKSRLTISKDTSKSQVVLSMTNMDPVDTATYYCVRVDTLNYHYYGMDVWGQGTTVTVSS
VL: DIQMTQSPSSLSASIGDRVTITCQASQGISNYLNWYQQKPGKAPKLLIYDASNLETGVPSRFSGSGSGTDFTFTISSLQPEDIATYYCHQYDDLPLTFGGGTKVEIRR
- binding result [1]: binds
- binding result [2]: binds
- binding result [3]: no binding
- binding result [4]: binds
- binding result [5]: no binding

B2: 51E5.1 (antibody, V domains shown)
VH: QVQLQQWGAGLLKPSETLSLTCAVYGGSFSGYYWSWIRQPPGKGLEWIGELDHSGSINYNPSLKSRVTISVDTSKNQFSLKLTSVTAADTAVYYCARVLGSTLDYWGQGTLVTVSS
VL: DIQMTQSPSSLSASVGDRVTITCRASQDIRNDLGWYQQKPGKAPNRLIYAASSLQFGVPSRFSGSGSGTEFTLTISSLQPEDFATYYCLQHSSYPLTFGGGTRVEIKR
- binding result [1]: binds
- binding result [2]: no binding
- binding result [3]: binds
- binding result [4]: binds
- GeoMean [6]: 21000
- GeoMean [7]: 747
- binding result [5]: no binding

B3: 66G2.1 (antibody, V domains shown)
VH: QVQLVESGGGVVQPGRSLRLSCAASGFTFSSYGMHWVRQAPGKGLEWVAGISYDGSNKNYADSVKGRITISRDNPKNTLYLQMNSLRAEDTAVYYCATTVTKEDYYYYGMDVWGQGTTVTVSS
VL: B2 VL with D28G, N45K, S53N, F56S, E70K, S76N, H91L, S92N, S93G, R103K
- binding result [1]: binds
- binding result [2]: no binding
- binding result [3]: binds
- binding result [4]: binds
- binding result [5]: no binding
- GeoMean [8]: 21600
- GeoMean [9]: 16700
- GeoMean [10]: 780

Further lines, results first:

- binding result [1]: binds
- binding result [2]: no binding
- binding result [3]: binds
- binding result [4]: binds
- GeoMean [11]: 4060
- GeoMean [12]: 18900
- GeoMean [13]: 780
- binding result [5]: no binding
B4: 67C10.1 (antibody, V domains shown)
VH: EVQLVQSGAEVKKPGESLKISCQGSGYSFSSYWIGWVRQMPGKGLEWMGIIYPGDSDTRYSPSFQGQVTISADKSINTAYLQWSSLKASDTAIYYCARRASRGYRYGLAFAIWGQGTMVTVSS
VL: DFVMTQTPLSLPVTPGEPASISCRSSQSLLNSDDGNTYLDWYLQKPGQSPQLLIYTLSYRASGVPDRFSGSGSGTDFTLKISRVEAEDVGVYYCMQRIEFPITFGQGTRLEIKR

- binding result [1]: binds
- binding result [2]: binds
- binding result [3]: binds
- binding result [4]: binds
- GeoMean [14]: 24600
- GeoMean [15]: 18800
- GeoMean [16]: 719
- binding result [5]: no binding
B5: 65C3.1 (antibody, V domains shown)
VH: QVQLQESGPGLVKPSETLSLTCTVSGGSISSYYWSWIRQPPGKGLEWIGYIYYTGSTNYNPSLKSRVTISVDTSKNQFSLKLSSVTAADTAVYYCAREYYYGSGSYYPWGQGTLVTVSS
VL: EMVMTQSPATLSVSPGERATLSCRASQSVSSQLAWYQEKPGRAPRLLIYGASNRAIDIPARLSGSGSGTEFTLTISSLQSEDFAVYYCQQYNNWPWTFGQGTKVEFKR

- binding result [1]: binds
- binding result [2]: no binding
- binding result [3]: binds
- binding result [4]: binds
- binding result [5]: no binding
- GeoMean [17]: 15800
- GeoMean [18]: 13900
- GeoMean [19]: 757
B6: 67F5.1 (antibody, V domains shown)
VH: B5 VH with Q5K, T54S, S56N
VL: EIVMTQSPATLSVSPGERVTLSCRASQSVSSNLAWYQQKPGQAPRLLIHGSSNRAIGIPARFSGSGSGTEFTLTISSLQSADFAVYNCQQYEIWPWTFGQGTKVEIKR
